The text below walks through data of article PMC3578133 (Cancer research, 2012).

The target of test [1] is T1, recombinant full length flag-tagged N-CoR (amino-acid 1-2440) (human, UniProt O75376 1-2440). The experiment in a line: SPR. Background: Surface plasmon resonance follows binding to a sensor surface in real time, without labels.
For test [2], the target named is T1, recombinant full length flag-tagged …. Briefly: co-IP.

T1 sequence (O75376 whole entry): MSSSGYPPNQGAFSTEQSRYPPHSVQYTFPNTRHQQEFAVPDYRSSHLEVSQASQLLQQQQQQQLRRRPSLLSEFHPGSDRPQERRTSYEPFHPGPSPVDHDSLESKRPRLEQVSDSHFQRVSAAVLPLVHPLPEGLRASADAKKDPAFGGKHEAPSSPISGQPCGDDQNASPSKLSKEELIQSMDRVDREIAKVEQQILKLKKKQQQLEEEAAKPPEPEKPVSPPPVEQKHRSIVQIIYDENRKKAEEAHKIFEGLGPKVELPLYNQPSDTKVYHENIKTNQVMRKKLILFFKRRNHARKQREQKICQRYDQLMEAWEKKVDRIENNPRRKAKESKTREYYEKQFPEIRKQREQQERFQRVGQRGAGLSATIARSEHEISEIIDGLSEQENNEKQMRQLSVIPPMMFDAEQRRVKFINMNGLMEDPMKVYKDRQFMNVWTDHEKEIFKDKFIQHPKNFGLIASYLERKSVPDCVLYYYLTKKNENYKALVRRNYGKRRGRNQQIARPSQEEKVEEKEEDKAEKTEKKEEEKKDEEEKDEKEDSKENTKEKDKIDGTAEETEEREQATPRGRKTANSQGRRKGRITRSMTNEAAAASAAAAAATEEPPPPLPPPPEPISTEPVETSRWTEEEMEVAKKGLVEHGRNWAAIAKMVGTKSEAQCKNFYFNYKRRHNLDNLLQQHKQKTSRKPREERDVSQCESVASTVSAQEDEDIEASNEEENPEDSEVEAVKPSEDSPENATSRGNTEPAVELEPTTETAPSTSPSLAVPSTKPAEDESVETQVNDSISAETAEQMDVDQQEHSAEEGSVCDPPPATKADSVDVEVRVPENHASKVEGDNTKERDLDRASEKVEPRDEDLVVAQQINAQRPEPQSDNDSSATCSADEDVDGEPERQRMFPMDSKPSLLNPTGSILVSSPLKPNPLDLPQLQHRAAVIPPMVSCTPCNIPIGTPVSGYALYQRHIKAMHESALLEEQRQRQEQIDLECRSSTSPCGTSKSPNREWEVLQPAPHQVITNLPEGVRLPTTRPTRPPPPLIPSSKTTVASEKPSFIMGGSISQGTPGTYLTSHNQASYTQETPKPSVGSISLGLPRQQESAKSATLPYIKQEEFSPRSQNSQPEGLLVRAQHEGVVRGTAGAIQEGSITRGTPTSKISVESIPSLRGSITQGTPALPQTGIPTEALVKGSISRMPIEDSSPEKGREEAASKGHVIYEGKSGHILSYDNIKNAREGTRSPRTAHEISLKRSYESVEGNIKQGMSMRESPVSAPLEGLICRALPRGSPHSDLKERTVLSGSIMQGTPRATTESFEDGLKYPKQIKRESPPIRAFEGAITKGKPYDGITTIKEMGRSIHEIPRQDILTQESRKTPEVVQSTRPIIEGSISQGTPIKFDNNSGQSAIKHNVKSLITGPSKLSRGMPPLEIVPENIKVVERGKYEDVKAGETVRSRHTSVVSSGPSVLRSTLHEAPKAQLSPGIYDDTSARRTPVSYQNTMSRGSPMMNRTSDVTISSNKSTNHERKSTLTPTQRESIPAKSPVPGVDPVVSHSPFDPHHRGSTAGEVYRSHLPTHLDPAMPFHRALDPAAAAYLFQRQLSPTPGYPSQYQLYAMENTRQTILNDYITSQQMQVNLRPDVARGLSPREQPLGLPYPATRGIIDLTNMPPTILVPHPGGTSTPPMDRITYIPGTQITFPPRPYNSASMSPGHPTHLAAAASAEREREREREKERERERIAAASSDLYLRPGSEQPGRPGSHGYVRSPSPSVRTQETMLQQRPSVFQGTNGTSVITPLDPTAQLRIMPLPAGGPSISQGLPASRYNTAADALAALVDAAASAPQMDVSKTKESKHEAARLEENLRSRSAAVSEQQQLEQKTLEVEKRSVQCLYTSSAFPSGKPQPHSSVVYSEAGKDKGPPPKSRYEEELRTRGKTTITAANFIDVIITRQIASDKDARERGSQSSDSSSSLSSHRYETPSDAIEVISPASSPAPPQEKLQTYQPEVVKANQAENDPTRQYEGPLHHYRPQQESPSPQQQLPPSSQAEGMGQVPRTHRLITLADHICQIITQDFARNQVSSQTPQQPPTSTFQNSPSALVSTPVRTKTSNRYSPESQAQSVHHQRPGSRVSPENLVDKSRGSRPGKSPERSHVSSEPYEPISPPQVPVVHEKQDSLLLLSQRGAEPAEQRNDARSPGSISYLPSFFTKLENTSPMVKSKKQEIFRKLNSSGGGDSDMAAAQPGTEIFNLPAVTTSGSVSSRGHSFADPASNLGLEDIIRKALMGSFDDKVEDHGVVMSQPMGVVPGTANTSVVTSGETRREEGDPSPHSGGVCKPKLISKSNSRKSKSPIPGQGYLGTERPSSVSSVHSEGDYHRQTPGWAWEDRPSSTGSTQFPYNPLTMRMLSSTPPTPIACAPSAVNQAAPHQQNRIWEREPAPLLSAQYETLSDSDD

B1: human full length N-terminal GST-tagged HDAC4 (natural protein, UniProt P56524 1-1084, looked up)
chain: MSSQSHPDGLSGRDQPVELLNPARVNHMPSTVDVATALPLQVAPSAVPMDLRLDHQFSLPVAEPALREQQLQQELLALKQKQQIQRQILIAEFQRQHEQLSRQHEAQLHEHIKQQQEMLAMKHQQELLEHQRKLERHRQEQELEKQHREQKLQQLKNKEKGKESAVASTEVKMKLQEFVLNKKKALAHRNLNHCISSDPRYWYGKTQHSSLDQSSPPQSGVSTSYNHPVLGMYDAKDDFPLRKTASEPNLKLRSRLKQKVAERRSSPLLRRKDGPVVTALKKRPLDVTDSACSSAPGSGPSSPNNSSGSVSAENGIAPAVPSIPAETSLAHRLVAREGSAAPLPLYTSPSLPNITLGLPATGPSAGTAGQQDAERLTLPALQQRLSLFPGTHLTPYLSTSPLERDGGAAHSPLLQHMVLLEQPPAQAPLVTGLGALPLHAQSLVGADRVSPSIHKLRQHRPLGRTQSAPLPQNAQALQHLVIQQQHQQFLEKHKQQFQQQQLQMNKIIPKPSEPARQPESHPEETEEELREHQALLDEPYLDRLPGQKEAHAQAGVQVKQEPIESDEEEAEPPREVEPGQRQPSEQELLFRQQALLLEQQRIHQLRNYQASMEAAGIPVSFGGHRPLSRAQSSPASATFPVSVQEPPTKPRFTTGLVYDTLMLKHQCTCGSSSSHPEHAGRIQSIWSRLQETGLRGKCECIRGRKATLEELQTVHSEAHTLLYGTNPLNRQKLDSKKLLGSLASVFVRLPCGGVGVDSDTIWNEVHSAGAARLAVGCVVELVFKVATGELKNGFAVVRPPGHHAEESTPMGFCYFNSVAVAAKLLQQRLSVSKILIVDWDVHHGNGTQQAFYSDPSVLYMSLHRYDDGNFFPGSGAPDEVGTGPGVGFNVNMAFTGGLDPPMGDAEYLAAFRTVVMPIASEFAPDVVLVSSGFDAVEGHPTPLGGYNLSARCFGYLTKQLMGLAGGRIVLALEGGHDLTAICDASEACVSALLGNELDPLPEKVLQQRPNANAVRSMEKVMEIHSKYWRCLQRTTSTAGRSLIEAQTCENEEAETVTAMASLSVGVKPAEKRPDEEPMEEEPPL
Take B1: the Kd in test [1] amounted to 1 nM.

B2: recombinant GST-tagged HDAC4 (amino acid 627-1085) (domain or fragment, human, UniProt P56524 627-1084, looked up)
chain: LSRAQSSPASATFPVSVQEPPTKPRFTTGLVYDTLMLKHQCTCGSSSSHPEHAGRIQSIWSRLQETGLRGKCECIRGRKATLEELQTVHSEAHTLLYGTNPLNRQKLDSKKLLGSLASVFVRLPCGGVGVDSDTIWNEVHSAGAARLAVGCVVELVFKVATGELKNGFAVVRPPGHHAEESTPMGFCYFNSVAVAAKLLQQRLSVSKILIVDWDVHHGNGTQQAFYSDPSVLYMSLHRYDDGNFFPGSGAPDEVGTGPGVGFNVNMAFTGGLDPPMGDAEYLAAFRTVVMPIASEFAPDVVLVSSGFDAVEGHPTPLGGYNLSARCFGYLTKQLMGLAGGRIVLALEGGHDLTAICDASEACVSALLGNELDPLPEKVLQQRPNANAVRSMEKVMEIHSKYWRCLQRTTSTAGRSLIEAQTCENEEAETVTAMASLSVGVKPAEKRPDEEPMEEEPPL
Regarding B2, the binding result in test [2] is “binds”.

As usually defined, the Kd is a measure of binding affinity in units of concentration.
